Abundance fitness data for 34 variants are collected here from the Human Domainome abundance scans (Beltran et al. 2025).

B1: Gamma-crystallin S, residues 96 to 176; numbered along this chain, P22914 (parent)
chain: IQIFEKGDFSGQMYETTEDCPSIMEQFHMREIHSCKVLEGVWIFYELPNYRGRQYLLDKKEYRKPIDWGAASPAVQSFRRI

± gives the uncertainty stated by the source.

The variants in this series derive from B1. Kind of series: abundance fitness (aPCA) (normalised: wild type 0, dead -1); higher = more abundant; growth selection in yeast, the domain comes from the species named. The following applies: Homo sapiens.
On to IQIFEKGDFSGQMYETTEDCPSIMEQFHMREIHSCKVLEGVWIFYELPNYRGRQYLLDKKEYRKPIDWGAASPAVLSFRRI, for which the abundance fitness is -0.129 ± 0.27.
The same measure for IQIFEKGDFSGQMYETTEDCPSIMEQFHMREIHSCKVLEGVWIFYELPNYRGRQYLLDKKEYRKPIDWGAASPAVESFRRI: -0.145 ± 0.29; for IQIFEKGDFSGQMYETTEDCPSIMEQFHMREIHSCKVLEGVWIFYELPNYRGRQYLLDKKEYRKPIDWGAASPAVGSFRRI: -0.066 ± 0.34; for IQIFEKGDFSGQMYETTEDCPSIMEQFHMREIHSCKVLEGVWIFYELPNYRGRQYLLDKKEYRKPIDWGAASPAVWSFRRI: -0.441 ± 0.39.
With IQIFEKGDFSGQMYETTEDCPSIMEQFHMREIHSCKVLEGVWIFYELPNYRGRQYLLDKKEYRKPIDWGAASPRVQSFRRI, the abundance fitness worked out at 0.118 ± 0.24.
As for IQIFEKGDFSGQMYETTEDCPSIMEQFHMREIHSCKVLEGVWIFYELPNYRGRQYLLDKKEYRKPIDWGAASPVVQSFRRI, the abundance fitness came out at 0.086 ± 0.2.
The same measure for IQIFEKGDFSGQMYETTEDCPSIMEQFHMREIHSCKVLEGVWIFYELPNYRGRQYLLDKKEYRKPIDWGAASPTVQSFRRI: -0.159 ± 0.16.
The same measure for IQIFEKGDFSGQMYETTEDCPSIMEQFHMREIHSCKVLEGVWIFYELPNYRGRQYLLDKKEYRKPIDWGAASPSVQSFRRI: -0.111 ± 0.17; for IQIFEKGDFSGQMYETTEDCPSIMEQFHMREIHSCKVLEGVWIFYELPNYRGRQYLLDKKEYRKPIDWGAASPQVQSFRRI: 0.034 ± 0.17.
Regarding IQIFEKGDFSGQMYETTEDCPSIMEQFHMREIHSCKVLEGVWIFYELPNYRGRQYLLDKKEYRKPIDWGAASPARQSFRRI, the abundance fitness was -0.665 ± 0.23.
The same measure for IQIFEKGDFSGQMYETTEDCPSIMEQFHMREIHSCKVLEGVWIFYELPNYRGRQYLLDKKEYRKPIDWGAASPAWQSFRRI: -0.105 ± 0.16.
The same measure for IQIFEKGDFSGQMYETTEDCPSIMEQFHMREIHSCKVLEGVWIFYELPNYRGRQYLLDKKEYRKPIDWGAASPAEQSFRRI: -0.821 ± 0.22.
The same measure for IQIFEKGDFSGQMYETTEDCPSIMEQFHMREIHSCKVLEGVWIFYELPNYRGRQYLLDKKEYRKPIDWGAASPATQSFRRI: -0.211 ± 0.15; for IQIFEKGDFSGQMYETTEDCPSIMEQFHMREIHSCKVLEGVWIFYELPNYRGRQYLLDKKEYRKPIDWGAASPAFQSFRRI: 0.146 ± 0.21; for IQIFEKGDFSGQMYETTEDCPSIMEQFHMREIHSCKVLEGVWIFYELPNYRGRQYLLDKKEYRKPIDWGAASPAGQSFRRI: 0.052 ± 0.16.
For the variant IQIFEKGDFSGQMYETTEDCPSIMEQFHMREIHSCKVLEGVWIFYELPNYRGRQYLLDKKEYRKPIDWGAASPADQSFRRI, the abundance fitness was -0.724 ± 0.28.
Regarding IQIFEKGDFSGQMYETTEDCPSIMEQFHMREIHSCKVLEGVWIFYELPNYRGRQYLLDKKEYRKPIDWGAASPALQSFRRI, the abundance fitness was -0.046 ± 0.12.
Consider IQIFEKGDFSGQMYETTEDCPSIMEQFHMREIHSCKVLEGVWIFYELPNYRGRQYLLDKKEYRKPIDWGAASPAAQSFRRI, for which the abundance fitness was -0.021 ± 0.16.
The same measure for IQIFEKGDFSGQMYETTEDCPSIMEQFHMREIHSCKVLEGVWIFYELPNYRGRQYLLDKKEYRKPIDWGAASPAVQSFRSI: -0.023 ± 0.12; for IQIFEKGDFSGQMYETTEDCPSIMEQFHMREIHSCKVLEGVWIFYELPNYRGRQYLLDKKEYRKPIDWGAASPAVQSFRVI: 0.062 ± 0.14; for IQIFEKGDFSGQMYETTEDCPSIMEQFHMREIHSCKVLEGVWIFYELPNYRGRQYLLDKKEYRKPIDWGAASPAVQSFRGI: 0.028 ± 0.13.
As to IQIFEKGDFSGQMYETTEDCPSIMEQFHMREIHSCKVLEGVWIFYELPNYRGRQYLLDKKEYRKPIDWGAASPAVQSFREI, the abundance fitness is -0.253 ± 0.28.
In the case of IQIFEKGDFSGQMYETTEDCPSIMEQFHMREIHSCKVLEGVWIFYELPNYRGRQYLLDKKEYRKPIDWGAASPAVQSFRYI, the abundance fitness was -0.919 ± 0.49.
IQIFEKGDFSGQMYETTEDCPSIMEQFHMREIHSCKVLEGVWIFYELPNYRGRQYLLDKKEYRKPIDWGAASPAVQSFRAI: the abundance fitness was -0.381 ± 0.27.
In the case of IQIFEKGDFSGQMYETTEDCPSIMEQFHMREIHSCKVLEGVWIFYELPNYRGRQYLLDKKEYRKPIDWGAASPAVQSFRQI, the abundance fitness was -0.491 ± 0.24.
The same measure for IQIFEKGDFSGQMYETTEDCPSIMEQFHMREIHSCKVLEGVWIFYELPNYRGRQYLLDKKEYRKPIDWGAASPAVQSFRHI: -0.573 ± 0.33; for IQIFEKGDFSGQMYETTEDCPSIMEQFHMREIHSCKVLEGVWIFYELPNYRGRQYLLDKKEYRKPIDWGAASPAVQSFRCI: 0.059 ± 0.36; for IQIFEKGDFSGQMYETTEDCPSIMEQFHMREIHSCKVLEGVWIFYELPNYRGRQYLLDKKEYRKPIDWGAASPAVQSFRLI: 0.02 ± 0.17.
The same measure for IQIFEKGDFSGQMYETTEDCPSIMEQFHMREIHSCKVLEGVWIFYELPNYRGRQYLLDKKEYRKPIDWGAASPAVQSFRRC: 0.106 ± 0.16.
The same measure for IQIFEKGDFSGQMYETTEDCPSIMEQFHMREIHSCKVLEGVWIFYELPNYRGRQYLLDKKEYRKPIDWGAASPAVQSFRRM: -0.31 ± 0.23; for IQIFEKGDFSGQMYETTEDCPSIMEQFHMREIHSCKVLEGVWIFYELPNYRGRQYLLDKKEYRKPIDWGAASPAVQSFRRD: 0.114 ± 0.27.
As to IQIFEKGDFSGQMYETTEDCPSIMEQFHMREIHSCKVLEGVWIFYELPNYRGRQYLLDKKEYRKPIDWGAASPAVQSFRRL, the abundance fitness was -0.065 ± 0.29.
Turning to IQIFEKGDFSGQMYETTEDCPSIMEQFHMREIHSCKVLEGVWIFYELPNYRGRQYLLDKKEYRKPIDWGAASPAVQSFRRQ, the abundance fitness came out at 0.045 ± 0.21.
As for IQIFEKGDFSGQMYETTEDCPSIMEQFHMREIHSCKVLEGVWIFYELPNYRGRQYLLDKKEYRKPIDWGAASPAVQSFRRN, the abundance fitness is 0.165 ± 0.49.
